For one assay, the target named is T1, 4H3843-bN.
T1 chain: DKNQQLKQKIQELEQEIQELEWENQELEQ
The assay can be described thus: two-hybrid library CCNG1.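 Also: natural log of median RNA to DNA barcode read ratio; higher means stronger binding.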

The target in a further assay is T2, 4H918-bN.
T2 chain: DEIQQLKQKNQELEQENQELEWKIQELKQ
The assay can be described thus: two-hybrid library CCNG1.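 Also: natural log of median RNA to DNA barcode read ratio; higher means stronger binding.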

A further assay deals with T3, 4H967-bN.
T3 chain: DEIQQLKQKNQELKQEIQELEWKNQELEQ
The assay can be described thus: two-hybrid library CCNG1.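 Also: natural log of median RNA to DNA barcode read ratio; higher means stronger binding.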

In a further assay the target is T4, 4H370-bN.
T4 chain: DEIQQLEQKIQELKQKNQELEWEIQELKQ
The assay can be described thus: two-hybrid library CCNG1.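 Also: natural log of median RNA to DNA barcode read ratio; higher means stronger binding.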

For the next assay, the target named is T5, 4H454-bN.
T5 chain: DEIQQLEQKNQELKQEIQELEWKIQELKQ
The assay can be described thus: two-hybrid library CCNG1.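 Also: natural log of median RNA to DNA barcode read ratio; higher means stronger binding.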

For another assay, the target named is T6, 4H607-bN.
T6 chain: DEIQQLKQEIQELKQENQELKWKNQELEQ
The assay can be described thus: two-hybrid library CCNG1.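 Also: natural log of median RNA to DNA barcode read ratio; higher means stronger binding.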

The target in the next assay is T7, 4H797-bN.
T7 chain: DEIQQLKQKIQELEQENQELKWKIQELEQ
In words: two-hybrid library CCNG1.

In another assay the target is T8, 4H331-bN.
T8 chain: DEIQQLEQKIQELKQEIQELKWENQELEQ
The assay can be described thus: two-hybrid library CCNG1.

Another assay concerns the target T9, 4H687-bN.
T9 chain: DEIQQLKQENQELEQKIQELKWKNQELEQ
The assay can be described thus: two-hybrid library CCNG1.

For another assay, the target named is T10, 4H338-bN.
T10 chain: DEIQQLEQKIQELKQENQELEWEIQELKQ
In words: two-hybrid library CCNG1.

The next assay deals with T11, 4H3427-bN.
T11 chain: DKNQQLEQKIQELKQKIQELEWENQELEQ
The assay can be described thus: two-hybrid library CCNG1.

The target of another assay is T12, 4H754-bN.
T12 chain: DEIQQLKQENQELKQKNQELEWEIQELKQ
The assay can be described thus: two-hybrid library CCNG1.

The target in the next assay is T13, 4H72-bN.
T13 chain: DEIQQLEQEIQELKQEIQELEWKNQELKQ
The assay can be described thus: two-hybrid library CCNG1.

Another assay has as its target T14, 4H953-bN.
T14 chain: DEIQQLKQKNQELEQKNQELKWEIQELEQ
The assay can be described thus: two-hybrid library CCNG1.

A further assay addresses T15, 4H3354-bN.
T15 chain: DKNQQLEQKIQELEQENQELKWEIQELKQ
In words: two-hybrid library CCNG1.

For a further assay, the target named is T16, 4H4001-bN.
T16 chain: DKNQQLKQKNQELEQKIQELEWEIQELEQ
The assay can be described thus: two-hybrid library CCNG1.

A further assay has as its target T17, 4H717-bN.
T17 chain: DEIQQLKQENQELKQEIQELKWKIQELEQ
The assay can be described thus: two-hybrid library CCNG1.

In a further assay the target is T18, 4H3606-bN.
T18 chain: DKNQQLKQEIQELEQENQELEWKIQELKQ
In words: two-hybrid library CCNG1.

A further assay has as its target T19, 4H908-bN.
T19 chain: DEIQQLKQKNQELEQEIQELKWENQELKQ
The assay can be described thus: two-hybrid library CCNG1.

The next assay concerns the target T20, 4H3855-bN.
T20 chain: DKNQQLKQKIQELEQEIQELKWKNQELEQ
In words: two-hybrid library CCNG1.

A further assay addresses T21, 4H3782-bN.
T21 chain: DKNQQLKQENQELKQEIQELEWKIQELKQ
The assay can be described thus: two-hybrid library CCNG1.

A further assay deals with T22, 4H883-bN.
T22 chain: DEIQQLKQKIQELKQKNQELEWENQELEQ
In words: two-hybrid library CCNG1.

The target in another assay is T23, 4H462-bN.
T23 chain: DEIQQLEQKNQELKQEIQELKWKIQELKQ
The assay can be described thus: two-hybrid library CCNG1.

Another assay deals with T24, 4H568-bN.
T24 chain: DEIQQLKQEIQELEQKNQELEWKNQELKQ
In words: two-hybrid library CCNG1.

A further assay concerns the target T25, APC4011-AA.
T25 chain: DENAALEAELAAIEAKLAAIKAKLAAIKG
In words: two-hybrid library CCmax. The note with it: mean of both orientations.

In a further assay the target is T26, APC7099-AA.
T26 chain: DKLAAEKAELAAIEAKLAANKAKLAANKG
The assay can be described thus: two-hybrid library CCmax. The note with it: mean of both orientations.

The target in the next assay is T27, APC8910-AA.
T27 chain: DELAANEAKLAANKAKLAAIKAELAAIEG
In words: two-hybrid library CCmax. As to conditions: mean of both orientations.

In the next assay the target is T28, APC2237-AA.
T28 chain: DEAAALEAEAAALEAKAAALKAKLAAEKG
The assay can be described thus: two-hybrid library CCmax. The note with it: mean of both orientations.

The next assay addresses T29, APC4264-AA.
T29 chain: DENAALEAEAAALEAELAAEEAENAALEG
The assay can be described thus: two-hybrid library CCmax. As to conditions: mean of both orientations.

The target of a further assay is T30, APC3645-AA.
T30 chain: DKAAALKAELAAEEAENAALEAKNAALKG
In words: two-hybrid library CCmax. As to conditions: mean of both orientations.

The target in another assay is T31, APC8191-AA.
T31 chain: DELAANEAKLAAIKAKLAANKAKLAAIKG
In words: two-hybrid library CCmax. The note with it: mean of both orientations.

Another assay addresses T32, APC2405-AA.
T32 chain: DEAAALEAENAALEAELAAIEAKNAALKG
The assay can be described thus: two-hybrid library CCmax. The note with it: mean of both orientations.

In a further assay the target is T33, APC4436-AA.
T33 chain: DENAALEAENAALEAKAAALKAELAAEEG
In words: two-hybrid library CCmax. The note with it: mean of both orientations.

For another assay, the target named is T34, APC5383-AA.
T34 chain: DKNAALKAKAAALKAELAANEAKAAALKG
The assay can be described thus: two-hybrid library CCmax. The note with it: mean of both orientations.

In a further assay the target is T35, APC9096-AA.
T35 chain: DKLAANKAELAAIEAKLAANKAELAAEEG
In words: two-hybrid library CCmax. As to conditions: mean of both orientations.

The target of a further assay is T36, APC232-AA.
T36 chain: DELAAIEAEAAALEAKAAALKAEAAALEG
The assay can be described thus: two-hybrid library CCmax. The note with it: mean of both orientations.

Another assay has as its target T37, APC1434-AA.
T37 chain: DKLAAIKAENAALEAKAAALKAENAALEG
The assay can be described thus: two-hybrid library CCmax.

The target in the next assay is T38, APC9319-AA.
T38 chain: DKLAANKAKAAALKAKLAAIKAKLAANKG
The assay can be described thus: two-hybrid library CCmax. The note with it: mean of both orientations.

The next assay addresses T39, APC6108-AA.
T39 chain: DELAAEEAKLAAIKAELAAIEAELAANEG
The assay can be described thus: two-hybrid library CCmax. As to conditions: mean of both orientations.

The next assay deals with T40, P9mSN.
T40 chain: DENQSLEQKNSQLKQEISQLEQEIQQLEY
The assay can be described thus: two-hybrid library CCNG1.

Take DEIQQLEQKIQELKQEIQELKWENQELEQ [4H331-bN]: the interaction score is -0.476 in the assay with 4H3843-bN; -0.476 with 4H918-bN; -0.995 in the assay with 4H967-bN; 0.508 in the assay with 4H370-bN; -0.999 with 4H454-bN; -2.2 with 4H607-bN. The interaction score was -0.866 in the assay with 4H797-bN; -0.214 with 4H331-bN; -0.624 in the assay with 4H687-bN; -0.434 with 4H338-bN; 1.12 in the assay with 4H3427-bN; -0.762 with 4H754-bN. Moreover, the interaction score with 4H72-bN is 0.918; with 4H953-bN, -0.578; with 4H3354-bN, -0.055; with 4H4001-bN, 0.329; in the assay with 4H717-bN it was -0.661; in the assay with 4H3606-bN, -0.132. Also, the interaction score was -1.35 in the assay with 4H908-bN; 1.17 with 4H3855-bN; -0.492 with 4H3782-bN; -0.0918 in the assay with 4H883-bN; -0.381 with 4H462-bN; -1.41 with 4H568-bN.

As for DKLAAIKAENAALEAKAAALKAENAALEG [APC1434-AA], the interaction score with APC4011-AA is -1.72; with APC7099-AA, -1.28; with APC8910-AA, -1.81; with APC2237-AA, -1.66; in the assay with APC4264-AA, -1.64; in the assay with APC3645-AA, -1.31. Moreover, the interaction score is -1.74 with APC8191-AA; -1.36 with APC2405-AA; -1.61 with APC4436-AA; -1.97 with APC5383-AA; -1.36 with APC9096-AA; -1.48 in the assay with APC232-AA. The interaction score in the assay with APC1434-AA was -1.78; with APC9319-AA, -1.75; with APC6108-AA, -1.79.

As to DENQSLEQKNSQLKQEISQLEQEIQQLEY [P9mSN], the interaction score in the assay with P9mSN was -1.56.

Values taken from PMC10397247.
